The results in this text go back to the emibetuzumab library of Makowski et al. (2022).

B1: VH:VL chains; a variant is named by its letters at X, in order (parent)
chain 1: QVQLVQSGAEVKKPGASVKVSCKASGYTFTDYXMHWVRQAPGQGLEWMGXVNPNXXXTTYNQKFEGRVTMTTDTSTSTAYMELRSLRSDDTAVYYCARXNXLDXWGQGTTVTVSS
chain 2: DIQMTQSPSSLSASVGDRVTITCSVSSSVSSIYLHWYQQKPGKAPKLLIYSTSNLASGVPSRFSGSGSGTDFTLTISSLQPEDFATYYCQVYSGYPLTFGGGTKVEIK

This data set covers variants of B1. Description: yeast display scFab, FACS + sequencing. A digest of the protocol: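 For the non-specific binding call, a heavy-chain CDR mutant scFab library on the yeast surface was FACS-sorted and samples from two replicates were deep sequenced. Cells were labelled with anti-Myc and either biotinylated ovalbumin (260 μg/mL in PBSB, 3 h, room temperature) or soluble membrane proteins (130 μg/mL, 20 min on ice), with gates on the top 25% and bottom 10% of binders. With membrane protein and ovalbumin samples pooled, a sequence in ≥3 of 4 positive samples and no negatives was scored positive, and the converse rule scored negatives.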
Consider YAARGAWD, for which the non-specific binding call was “binds”.

As to DAGAADGA, the non-specific binding call is listed as “no binding”.

As for FAGGGAGS, the non-specific binding call is “no binding”.

As to FAGGGAGA, the non-specific binding call was “no binding”.

For FAGGDYGS, the non-specific binding call was “binds”.

YAAGSSWD: the non-specific binding call is “binds”.

For the variant VAARGFGS, the non-specific binding call was “no binding”.

As to DAGEGFVA, the non-specific binding call was “no binding”.

Take VAGGDDVA: the non-specific binding call is recorded as “no binding”.

As to VAGGDDVF, the non-specific binding call is “no binding”.

Take YAARGAAV: the non-specific binding call is listed as “binds”.

Regarding SAEGDAAD, the non-specific binding call is recorded as “no binding”.

As for FAATDSVS, the non-specific binding call is on record as “binds”.

Consider DAGGGAVV, for which the non-specific binding call is listed as “no binding”.

As for DAGGGAVY, the non-specific binding call is listed as “no binding”.

Take DAGGGAVA: the non-specific binding call is “no binding”.

For DAARGDSA, the non-specific binding call was “no binding”.

Regarding DAGGASSA, the non-specific binding call is “no binding”.

As to DAGGASSV, the non-specific binding call is listed as “no binding”.

Take DAGGASSS: the non-specific binding call is recorded as “no binding”.

For the variant YAEATDLY, the non-specific binding call is given as “no binding”.

In the case of YAGGDDAV, the non-specific binding call is given as “no binding”.

YAGGDDAA: the non-specific binding call is “no binding”.

In the case of VAAKSAAA chain 1 R38K, the non-specific binding call is on record as “no binding”.

On to FAGGGDGA, for which the non-specific binding call is reported as “no binding”.

Take SAGGGAGD: the non-specific binding call was “no binding”.

FAGEGAGV: the non-specific binding call was “no binding”.

SAGGGAWV: the non-specific binding call is given as “no binding”.

On to VAEGGYAV, for which the non-specific binding call is “binds”.

For the variant FAGGGASD, the non-specific binding call is given as “no binding”.

For the variant VAEKGFLV, the non-specific binding call is on record as “binds”.

With YAAKSDGY, the non-specific binding call is “binds”.

With YAGEGFGV, the non-specific binding call was “no binding”.

As for VAGGDDAV, the non-specific binding call is reported as “no binding”.

Consider YAAAAFGY, for which the non-specific binding call is on record as “binds”.

As for DAGGADAY, the non-specific binding call was “no binding”.

For the variant DAGGADAV, the non-specific binding call is reported as “no binding”.

Take YAEKDAGD: the non-specific binding call is reported as “no binding”.

As to FAGGGDAV, the non-specific binding call is recorded as “no binding”.

In the case of FAAKTAAA, the non-specific binding call was “binds”.

On to VAEKGSGA, for which the non-specific binding call is “no binding”.

Regarding VAGGDAGV, the non-specific binding call was “no binding”.

In the case of DAARGSSV, the non-specific binding call is recorded as “no binding”.

For YAEESSSA, the non-specific binding call was “no binding”.

On to DAERDSGV, for which the non-specific binding call is listed as “no binding”.

DAARGAAA: the non-specific binding call is “no binding”.

As for VAEKGDGV, the non-specific binding call is given as “no binding”.

For VAEKGDGA, the non-specific binding call is recorded as “no binding”.

As to YAEEGVGY, the non-specific binding call is reported as “binds”.

FAARAFGV: the non-specific binding call is listed as “binds”.

For the variant DAARGDVV, the non-specific binding call is on record as “no binding”.

As for SAGEGDGV, the non-specific binding call is “no binding”.

With VAEKGDVF, the non-specific binding call is listed as “no binding”.

With FAAGGSGD, the non-specific binding call is recorded as “binds”.

Regarding DAETAAAA, the non-specific binding call is reported as “no binding”.

With DAARGDGA, the non-specific binding call is recorded as “no binding”.

DAARGDGV: the non-specific binding call is recorded as “no binding”.

As for YAEESDGS, the non-specific binding call was “no binding”.

With VAEAAVGD, the non-specific binding call is “binds”.

Consider DAGGADVY, for which the non-specific binding call is recorded as “no binding”.

In the case of DAGGADVA, the non-specific binding call is “no binding”.

As to YAGGDDGA, the non-specific binding call was “no binding”.

FAAGSSGS: the non-specific binding call is “binds”.

Turning to FAEGDDVA, the non-specific binding call is “no binding”.

For the variant FAEGDDVY, the non-specific binding call is “no binding”.

As to FAEGDDVV, the non-specific binding call was “no binding”.

DAEEDAGY: the non-specific binding call was “no binding”.

For SAAGGAAV chain 1 L45S, the non-specific binding call is “no binding”.

As for YAAKTAAA, the non-specific binding call is reported as “binds”.

Regarding YAAGSFGY, the non-specific binding call was “binds”.

With YAGEASAV, the non-specific binding call was “no binding”.

Regarding VAGGDAVA, the non-specific binding call is reported as “no binding”.

For VAGGDAVV, the non-specific binding call is recorded as “no binding”.

In the case of YAEGGYGV chain 1 V68I, the non-specific binding call is on record as “binds”.

YAEGASSF: the non-specific binding call was “no binding”.

Take VAGGDALD: the non-specific binding call is “no binding”.

Regarding FAARDSGA, the non-specific binding call was “no binding”.

Consider DAGAAAGD, for which the non-specific binding call is “no binding”.

Regarding DAATADSS, the non-specific binding call is “no binding”.

On to VAEKGALA, for which the non-specific binding call was “no binding”.

For the variant SAEKDDGS, the non-specific binding call is reported as “no binding”.

With YAATADSS, the non-specific binding call is “no binding”.

As to SAGEGDVF, the non-specific binding call is given as “no binding”.

As to SAGEGDVY, the non-specific binding call was “no binding”.

Regarding YAAGASVD, the non-specific binding call was “no binding”.

Consider YAAETDVF, for which the non-specific binding call is recorded as “no binding”.

As for FAEGASSS, the non-specific binding call is “no binding”.

As to DAGGDDVY, the non-specific binding call is recorded as “no binding”.

Take VAERSFGV: the non-specific binding call is listed as “binds”.

For the variant DAGGGAGD, the non-specific binding call is reported as “no binding”.

YAGEGDGA: the non-specific binding call is on record as “no binding”.

As to SAARDAVA, the non-specific binding call is recorded as “no binding”.

Turning to DAGEASAV, the non-specific binding call is listed as “no binding”.

In the case of AAEKDDLA, the non-specific binding call was “no binding”.

As to VAEATDLY, the non-specific binding call is recorded as “no binding”.

For the variant YAGGAYLY, the non-specific binding call is “no binding”.

On to VAGGGAGV, for which the non-specific binding call is given as “no binding”.

Regarding VAEEDAGY, the non-specific binding call is recorded as “no binding”.

With YAEKDFGV, the non-specific binding call was “no binding”.

With DAAKNDAV, the non-specific binding call is “no binding”.

Take VAATGVSD: the non-specific binding call is “binds”.

Turning to YAGGDSGV, the non-specific binding call is recorded as “no binding”.

Take DAGGAAGV: the non-specific binding call is “no binding”.

As for DAGGAAGD, the non-specific binding call is “no binding”.

Turning to FAAGGAWA, the non-specific binding call is reported as “binds”.

As for SAERSAAF, the non-specific binding call is “no binding”.

Take VAARGAAV: the non-specific binding call is “no binding”.

With DAAGAAGV, the non-specific binding call is listed as “no binding”.

In the case of VAGGGAAV, the non-specific binding call was “no binding”.

In the case of DAGGDAGD, the non-specific binding call is on record as “no binding”.

For VAAKNDGA, the non-specific binding call was “no binding”.
